Target: Trx-VL(NP)-GUS(IV-5)KW (Escherichia coli)
Assay: cell-based or functional assay

PentaHis antibody (QIAGEN)
average S/B ratio in 11 minutes after the beginning of reaction (GUS activity): 13 | average S/B ratio in 20 minutes after the beginning of reaction (GUS activity): 42.3
